Assay: soluble on expression in E. coli; label from the status in PepcDB or PDB records

**Q.** Which “soluble on expression in E. coli” value does the source give for “MKLKIGIVCYPTVGGSGVVATELGKLLAERGHEIHFISSSMPFRLNKVYGNIYYHEVSVNQYSVFQYPPYDLALASKIAEVAKRERLDVLHAHYAVPHAVCAVLARQMVGELPIITTLHGTDITVLGYDPSLSDMIKFGIEQSDIVTAVSDALARQTYELLDVQATIHTVYNFVDERVYRRREAGHLRREYGIRDDERVVIHVSNFRKVKRVPDVVRAFAIVRRHVPAKLLLVGDGPEMTVVCRLVKELGLQDDVRFLGKQDKLEELYSISDVMMLLSEKESFGLVLLEAMACGVPCIGTAIGGIPEVIEDGKTGFLCPLGDVKEAARQAMALLTDCRLHAEMARQAVQTVERKFRSADIVGQYEQLYASLAARKVKR” here?
**A.** Its value is “not soluble”.

**Q.** With “ATDTGGYAATAGGNVTGAVSKTATSMQDIVNIIDAARLDANGKKVKGGAYPLVITYTGNEDSLINAAAANICGQWSKDPRGVEIKEFTKGITIIGANGSSANFGIWIKKSSDVVVQNMRIGYLPGGAKDGDMIRVDDSPNVWVDHNELFAANHECDGTPDNDTTFESAVDIKGASNTVTVSYNYIHGVKKVGLDGSSSSDTGRNITYHHNYYNDVNAKLPLQRGGLVHAYNNLYTNITGSGLNVRQNGQALIENNWFEKAINPVTSRYDGKNFGTWVLKGNNITKPADFSTYSITWTADTKPYVNADSWTSTGTFPTVAYNYSPVSAQCVKDKLPGYAGVGKNLATLTSTACK” as the sequence, how does the “soluble on expression in E. coli” value read?
**A.** Its value is “soluble”.

**Q.** For “MSLKRIDRIYMYVKEKTAHLTKAEYDQGVTTQEIAEVLGIQRTNSSKDLNQLVREGKLIKTDGRPVRYIYQTLVTHVKPVTKHVVSYKETPVSEEKNTLQIDTKDIFAKIIGANGSMKNSVEQAKAAILYPPRGLNCLITGPTGSGKTYFAHAMYHFAKAHHVIDEETELIVFNCADYANNPELLMSHLFGYAKGAFTGADEEKMGIIDQADGGMLFLDEIHRLPPEGQEMIFYFMDHGTYSRLGETTKSHEANVRIVGATTEDPGSSLLETFVRRIPINIKLPAFEKRPANEKVDLVKIMIAHEANRTQRKISLTEDVAKALIGSVTYGNIGQLKSNIQLVCARGFLNHMQSPEISITIDDLTEGIRSGLIQLASNRSAMAELSKILEPKITVAPNEGHHHHHH”, which “soluble on expression in E. coli” value is on record?
**A.** Its value is “soluble”.

**Q.** Which “soluble on expression in E. coli” value does the source give for “MEIVDTRTPNSKRFISGVTGDWEVIIGMEVHAQIISNSKLFSGASTKFGAEPNNHVSLIDAAMPGMLPVLNQECVRQAVRTGLGLKARINLRSVFDRKNYFYPDLPQGYQISQFRYPIVGEGKIIISIGPDSNGQFEDIEVGIERLHLEQDAGKSMHDQHPTMSFVDLNRSGVALMEIVSKPDMRSADEAKAYMTKLRTIVRYLGTCDGNMDEGSMRADVNVSVRRPGESFGTRCEIKNVNSIRFIGQAIEYEARRQIAILEDGGVIDQETRLFDAAKGETRSMRSKEEAHDYRYFPDPDLLPLEFDQAFVDALAAELPELPDDIKIRFINEMGLTAYDASILVTEKAIANYFEKVAHGRDGKTVANWVINDLLGALNKDNREIEETPVSPDQLGSIIDLIKEGTISGKIAKDLFEIIWHEGGDPRQIVEERNMKQVTDTKAIERAVDEIMANNSDKVAQAKQKPALAGWFVGQVMKTTGGKANPQTVNELVKLKLGID” here?
**A.** The value was “not soluble”.

**Q.** For “SDLSALRVEEVQNVINAMQKILECPICLELIKEPVSTKCDHIFCKFCMLKLLNQKKGPSQCPLCKNDITKRSLQESTRFSQLVEELLKIICAFQLDTGLEYANSYNFAKK”, which “soluble on expression in E. coli” value is on record?
**A.** Its value is “soluble”.

**Q.** Which “soluble on expression in E. coli” value does the source give for “MYKPKNINSVLTFYKDQIQLVVSDDQNQFNILFYQTIDNDGFYSKQQLKNKLRLKLALNQLVDQANYFLGFKLEKVVVVLAELIDDLKIHNFKSEIFFTGYDFDHKAMIKKEKQRFCEQNNQLTVMDTMVLNYHDVINNKITKSFAFNKSYVANLVAYSSKSNLIGELKFFLKRNVNLKVKKIISHHLALANSLSKKQNNMFVYLGQKTTELMLFMDNALVDVITNQFGKNHFIDIPANQENKPLLEFLVDNTTKIGDCYSLGMTYTDGDSYKEIKALTIGDLMQTVSDKIKTLIDFINSGSLTFFNKFKTLPKLLYFYTRSKQITNLFQANVALINPQFKTVDIYKNKIQFISENYLLSCEAISLQITNRIKNQISFDFTNADNIQKPKPKKHFMILSKHLTKFVQRLVK” here?
**A.** Its value is “soluble”.

**Q.** For “MAHHHHHHMSTEPTPRVIVFDLDGTLWRPEMYELWGGGAPFMLSKDNSSIAIDKKGTEVRLIGQTRELLQMLSTTEEWRNTHLAISSTCDEPRWAMELLQLFRFRDKRGNDVPMLSLFGDLVEIYKANKKNQHRTILKKVKEHDPTVRGDFSDFIFFDNQQDNIGHVSSIGVTSIYCPNGMVGGVFERGLKEWRDKEKKRAL”, which “soluble on expression in E. coli” value is on record?
**A.** Its value is “soluble”.

From the DeepSol protein solubility set
